Changes are numbered by the printed parent chain. Names and notes keep the numbering of the source. Each block holds one binder with its values, some of them ahead of it.
Key:
[1] = molecular target: T1, recombinant human DLL4 (Cat# 1506-D4/CF, R&D Systems) (human, UniProt Q9NR61 27-529); test: ELISA, hDLL4 coated 0.5 ng/ul, Fab 25.00 nM
T1 construct: Bought protein; also called hDLL4; h DLL4
Protocol: (§1) The plate was blocked by adding 1% BSA in Tris-buffered Saline Tween (TBST) and incubating for 1 hour at room temperature followed by washing 2 times with 150 μl TBST. A Fab antibody was serially diluted in 1% BSA in PBS. A 50 μl aliquot of each serial dilution was added, in triplicate, to each well and the plate was incubated for 1 hour at room temperature followed by washing 2 times with TBST. 50 μl of either goat anti-human kappa HRP conjugated secondary antibody (Cat # A7164-1 mL, Sigma-Aldrich) or goat anti-human lambda HRP conjugated secondary antibody (Cat # L1645-1 ml, Sigma-Aldrich), diluted 1:1000 in 1% BSA in PBS, was added to each well and the plate was incubated for 30 minutes at room temperature followed by washing 3 times with 200 μl TBST. Finally, 50 μl TMB one-component reagent (Cat # TMBW-1000-01, BioFax) was added and allowed to develop for 2 minutes at room temperature. The reaction was immediately halted by the addition of 50 μl 0.5M H₂SO₄ and the absorbance at 450 nm was measured using an ELISA plate reader.

[2] = molecular target: T1, recombinant human DLL4 (Cat# …); test: ELISA, hDLL4 coated 0.5 ng/ul, Fab 1.56 nM
Protocol: as §1

[3] = molecular target: T1, recombinant human DLL4 (Cat# …); test: ELISA, hDLL4 coated 0.5 ng/ul, Fab 3.13 nM
Protocol: as §1

[4] = molecular target: T1, recombinant human DLL4 (Cat# …); test: ELISA, hDLL4 coated 0.5 ng/ul, Fab 12.50 nM
Protocol: as §1

[5] = molecular target: T1, recombinant human DLL4 (Cat# …); test: ELISA, hDLL4 coated 0.5 ng/ul, Fab 50.00 nM
Protocol: as §1

[6] = molecular target: T1, recombinant human DLL4 (Cat# …); test: ELISA, hDLL4 coated 0.5 ng/ul, Fab 100.00 nM
Protocol: as §1

[7] = molecular target: T1, recombinant human DLL4 (Cat# …); test: ELISA, hDLL4 coated 0.5 ng/ul, Fab 6.25 nM
Protocol: as §1

[8] = molecular target: T1, recombinant human DLL4 (Cat# …); test: ELISA, hDLL4 coated 0.5 ng/ul, Fab 0.78 nM
Protocol: as §1

[9] = molecular target: T2, full-length human DLL4 expressed on the surface of CHO cells (human, UniProt Q9NR61 26-685); test: flow cytometry competition, 250 nM biotinylated Notch-Fc as competitor, Fab 10 nM
T2 construct: also called CHO-DLL4; DLL4-expressing CHO cells
Protocol: (§2) Streptavidin-PE was used as a detection molecule.
(§3) Fab was 5-fold serially diluted in 2% BSA/PBS from a starting concentration of 50 nM. […] PE-labeled streptavidin (Cat# 21627, Pierce-Thermo Scientific) was then added to a final dilution of 1:5 followed by incubation for 10 minutes at room temperature. The cells were then washed twice in 2% BSA/PBS and analyzed by flow cytometry on a BD FACSAria.

[10] = molecular target: T2, full-length human DLL4 expressed on the …; test: flow cytometry competition, 250 nM biotinylated Notch-Fc as competitor, Fab 50 nM
Protocol: as §2, §3

[11] = molecular target: T2, full-length human DLL4 expressed on the …; test: flow cytometry competition, 250 nM biotinylated Notch-Fc as competitor, Fab 2 nM
Protocol: as §2, §3

ELISA absorbance at 450 nm [1]: 0.421 A450
ELISA absorbance at 450 nm [2]: 0.148 A450
ELISA absorbance at 450 nm [3]: 0.167 A450
ELISA absorbance at 450 nm [4]: 0.294 A450
ELISA absorbance at 450 nm [5]: 0.661 A450
ELISA absorbance at 450 nm [6]: 1.07 A450
ELISA absorbance at 450 nm [7]: 0.229 A450
ELISA absorbance at 450 nm [8]: 0.145 A450
B1: Fab VH5-51_IGHD5-18*01>3_IGHJ4*01 G100K/G104T G24T/S28R/G35V (H:KT TRV) & V3-4_IGLJ1*01 M94R/S96M (L:RM) (Fab, V domains shown)
VH: EVQLVQSGAEVKKPGESLKISCKTSGYRFTSYWIVWVRQMPGKGLEWMGIIYPGDSDTRYSPSFQGQVTISADKSISTAYLQWSSLKASDTAMYYCARRKYSYTYDYFDYWGQGTLVTVSS
VL: QTVVTQEPSFSVSPGGTVTLTCGLSSGSVSTSYYPSWYQQTPGQAPRTLIYSTNTRSSGVPDRFSGSILGNKAALTITGAQADDESDYYCVLYRGMGISYVFGTGTKVTVL
notes: Tested as Fab from E. coli (Plasmid A: CH1, His6, Flag; Plasmid E: CL lambda); also called H:KT TRV & L:RM; KT TRV / RM

ELISA absorbance at 450 nm [1]: 0.333 A450
ELISA absorbance at 450 nm [2]: 0.148 A450
ELISA absorbance at 450 nm [3]: 0.164 A450
ELISA absorbance at 450 nm [4]: 0.226 A450
ELISA absorbance at 450 nm [5]: 0.524 A450
ELISA absorbance at 450 nm [6]: 0.67 A450
ELISA absorbance at 450 nm [7]: 0.203 A450
ELISA absorbance at 450 nm [8]: 0.138 A450
B2: Fab VH5-51_IGHD5-18*01>3_IGHJ4*01 G100K/G104T S28R (H:KT S28R) & V3-4_IGLJ1*01 (Fab, V domains shown)
VH: B1 VH with T24G, V35G
VL: B1 VL with R94M, M96S
notes: Tested as Fab from E. coli (Plasmid A: CH1, His6, Flag); Plasmid E: CL lambda; also called H:KT S28R & L:wt

signal of Notch-Fc bound to CHO-DLL4 (streptavidin-PE) [9]: 190
signal of Notch-Fc bound to CHO-DLL4 (streptavidin-PE) [10]: 105
signal of Notch-Fc bound to CHO-DLL4 (streptavidin-PE) [11]: 250
B3: Fab VH5-51_IGHD5-18*01>3_IGHJ4*01 G100K/G104T G24T/S28R/G35V (H:KT TRV) & V3-4_IGLJ1*01 V91L/S96P S52G (L:LP S52G) (Fab, V domains shown)
VH: B1 VH
VL: B1 VL with S52G, V91L, R94M, M96P
notes: Tested as Fab from E. coli (Plasmid A: CH1, His6, Flag; Plasmid E: CL lambda); also called H:KT TRV & L:LP S52G

Reference: US20110318339A1 (FABRUS, published 2011)
